Tests used:
[1] = target: T1, human ROR1 (human, UniProt Q01973 30-937); experiment: flow cytometry (FACS) on CHO cells stably expressing full-length human ROR1
T1 construct: whole, on cells; also called full-length human ROR1 on CHO cells; ROR1-CHO
Procedure: (§1) The tetra-specific GNC antibodies listed in TABLEs 3 and 4 were tested for binding to Chinese hamster ovary cells (CHO) cells stably expressing a full-length human ROR1. Antibodies were prepared at 2× final concentration and titrated 1:5 across 3 wells of a 96 well plate in 50 ul of PBS/2% FBS and then 5,000 ROR1-CHO cells in 50 ul PBS/2% FBS were added. This mixture was incubated for 30 minutes on ice, washed once with 200 ul PBS/2% FBS, and then the secondary antibody PE Goat anti-Human IgG Fc at 1:1000 dilution of stock was added, and this mixture was incubated for 30 minutes on ice. Cells were washed 2×200 ul PBS/2% FBS, resuspended in 50 ul PBS/2% FBS and analyzed on a BD LSRFORTESSA and the binding profile is shown in FIG. 4.

[2] = target: T2, human 4-1BB (human, UniProt Q07011 24-255); experiment: flow cytometry (FACS) on human 41BB transfected CHO cells
T2 construct: whole, on cells; also called human 41BB transfected CHO cells
Procedure: as §1, with “5. All of the tetra-specific GNC antibodies except for the control SI-27E12 contain a 41BB binding domain, 460C3, 420H5, or 466F6 and bound to 41BB expressing CHO cells with varying intensity.” for “4.”

[3] = target: T3, human PD-L1 (human, UniProt Q9NZQ7 19-290); experiment: flow cytometry (FACS) on human PDL1 transfected CHO cells
T3 construct: whole, on cells; also called human PDL1 transfected CHO cells

Measured: binding result

T3 sequence (Q9NZQ7 19-290): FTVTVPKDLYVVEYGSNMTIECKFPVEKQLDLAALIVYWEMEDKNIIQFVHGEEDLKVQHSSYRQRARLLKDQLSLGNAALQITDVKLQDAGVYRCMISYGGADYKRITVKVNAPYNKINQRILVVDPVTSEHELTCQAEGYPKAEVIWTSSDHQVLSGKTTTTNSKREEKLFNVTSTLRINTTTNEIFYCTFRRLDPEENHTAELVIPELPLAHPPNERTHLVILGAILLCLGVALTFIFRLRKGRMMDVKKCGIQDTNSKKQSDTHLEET
T2 sequence (Q07011 24-255): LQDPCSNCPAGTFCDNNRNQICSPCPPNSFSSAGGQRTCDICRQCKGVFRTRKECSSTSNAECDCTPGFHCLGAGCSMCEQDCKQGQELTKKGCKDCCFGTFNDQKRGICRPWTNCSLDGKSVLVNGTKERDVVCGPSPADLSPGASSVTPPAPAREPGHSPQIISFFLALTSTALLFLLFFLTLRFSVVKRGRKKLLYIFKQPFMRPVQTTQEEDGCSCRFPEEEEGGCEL
T1 sequence (Q01973 30-937): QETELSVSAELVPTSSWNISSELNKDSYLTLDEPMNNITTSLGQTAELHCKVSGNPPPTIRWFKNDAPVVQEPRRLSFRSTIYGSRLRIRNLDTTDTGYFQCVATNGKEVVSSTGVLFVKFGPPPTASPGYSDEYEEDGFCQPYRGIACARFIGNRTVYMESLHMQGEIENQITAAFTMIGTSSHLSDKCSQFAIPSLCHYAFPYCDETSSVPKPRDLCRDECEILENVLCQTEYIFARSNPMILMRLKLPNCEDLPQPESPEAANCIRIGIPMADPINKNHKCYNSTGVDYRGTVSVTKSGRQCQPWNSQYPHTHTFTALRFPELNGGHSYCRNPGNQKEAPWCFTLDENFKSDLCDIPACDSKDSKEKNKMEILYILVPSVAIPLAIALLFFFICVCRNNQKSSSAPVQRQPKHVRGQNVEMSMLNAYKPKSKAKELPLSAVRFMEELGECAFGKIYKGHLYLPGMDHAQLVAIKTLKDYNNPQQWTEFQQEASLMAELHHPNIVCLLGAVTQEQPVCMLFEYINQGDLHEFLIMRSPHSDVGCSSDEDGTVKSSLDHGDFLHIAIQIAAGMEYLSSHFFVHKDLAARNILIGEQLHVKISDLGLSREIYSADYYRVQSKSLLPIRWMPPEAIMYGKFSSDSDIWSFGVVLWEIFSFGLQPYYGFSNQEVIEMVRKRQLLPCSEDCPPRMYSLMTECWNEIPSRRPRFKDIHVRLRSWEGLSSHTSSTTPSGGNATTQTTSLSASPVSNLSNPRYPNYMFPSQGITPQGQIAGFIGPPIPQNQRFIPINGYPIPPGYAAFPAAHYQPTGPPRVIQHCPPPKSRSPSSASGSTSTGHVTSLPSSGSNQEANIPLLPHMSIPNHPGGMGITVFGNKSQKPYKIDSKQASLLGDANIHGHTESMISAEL

B1: SI-35E18 (460C3-L1H1-scFv x PL230C6-Fab x 323H7-H4L1-scFv x 284A10-H1L1-scFv) (antibody)
heavy: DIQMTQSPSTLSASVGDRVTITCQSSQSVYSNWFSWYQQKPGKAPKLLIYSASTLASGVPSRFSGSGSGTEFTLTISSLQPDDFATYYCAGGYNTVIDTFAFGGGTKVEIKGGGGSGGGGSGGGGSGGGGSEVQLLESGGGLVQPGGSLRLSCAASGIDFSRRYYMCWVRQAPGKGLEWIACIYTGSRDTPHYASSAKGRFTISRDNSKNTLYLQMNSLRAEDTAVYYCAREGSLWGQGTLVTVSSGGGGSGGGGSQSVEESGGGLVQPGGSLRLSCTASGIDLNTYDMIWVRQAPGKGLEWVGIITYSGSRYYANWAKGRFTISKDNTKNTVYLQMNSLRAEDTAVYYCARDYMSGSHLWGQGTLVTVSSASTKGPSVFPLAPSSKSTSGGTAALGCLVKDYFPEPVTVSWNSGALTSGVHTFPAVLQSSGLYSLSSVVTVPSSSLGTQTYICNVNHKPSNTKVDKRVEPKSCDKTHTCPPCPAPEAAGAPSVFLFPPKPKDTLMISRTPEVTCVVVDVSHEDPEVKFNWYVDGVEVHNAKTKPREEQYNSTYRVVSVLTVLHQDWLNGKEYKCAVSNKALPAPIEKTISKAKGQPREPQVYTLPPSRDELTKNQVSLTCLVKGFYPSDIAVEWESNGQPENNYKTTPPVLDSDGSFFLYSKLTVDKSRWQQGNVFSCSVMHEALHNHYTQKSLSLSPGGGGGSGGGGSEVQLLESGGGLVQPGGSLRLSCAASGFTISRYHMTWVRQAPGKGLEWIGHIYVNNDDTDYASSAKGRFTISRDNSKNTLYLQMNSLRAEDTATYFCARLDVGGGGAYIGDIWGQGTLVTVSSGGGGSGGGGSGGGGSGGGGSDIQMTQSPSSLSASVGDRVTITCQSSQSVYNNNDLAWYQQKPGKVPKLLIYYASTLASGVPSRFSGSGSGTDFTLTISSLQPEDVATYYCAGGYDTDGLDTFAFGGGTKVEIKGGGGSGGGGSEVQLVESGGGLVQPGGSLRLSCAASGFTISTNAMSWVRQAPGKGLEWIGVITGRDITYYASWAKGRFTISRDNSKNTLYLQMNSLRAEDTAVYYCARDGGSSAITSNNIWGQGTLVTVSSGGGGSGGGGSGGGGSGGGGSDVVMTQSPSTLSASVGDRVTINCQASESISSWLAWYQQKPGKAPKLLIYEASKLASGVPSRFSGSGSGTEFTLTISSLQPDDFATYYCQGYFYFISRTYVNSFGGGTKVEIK
light: AYDMTQSPSSVSASVGDRVTIKCQASEDIYSFLAWYQQKPGKAPKLLIHSASSLASGVPSRFSGSGSGTDFTLTISSLQPEDFATYYCQQGYGKNNVDNAFGGGTKVEIKRTVAAPSVFIFPPSDEQLKSGTASVVCLLNNFYPREAKVQWKVDNALQSGNSQESVTEQDSKDSTYSLSSTLTLSKADYEKHKVYACEVTHQGLSSPVTKSFNRGEC
notes: Tetra-specific (4-1BB x PD-L1 x ROR1 x CD3) antibody with human IgG1 null2 Fc; also called tetra-specific GNC antibody
binds: all assays above

B2: SI-35E20 (466F6-L5H2-scFv x PL230C6-Fab x 323H7-H4L1-scFv x 284A10-H1L1-scFv) (antibody)
heavy: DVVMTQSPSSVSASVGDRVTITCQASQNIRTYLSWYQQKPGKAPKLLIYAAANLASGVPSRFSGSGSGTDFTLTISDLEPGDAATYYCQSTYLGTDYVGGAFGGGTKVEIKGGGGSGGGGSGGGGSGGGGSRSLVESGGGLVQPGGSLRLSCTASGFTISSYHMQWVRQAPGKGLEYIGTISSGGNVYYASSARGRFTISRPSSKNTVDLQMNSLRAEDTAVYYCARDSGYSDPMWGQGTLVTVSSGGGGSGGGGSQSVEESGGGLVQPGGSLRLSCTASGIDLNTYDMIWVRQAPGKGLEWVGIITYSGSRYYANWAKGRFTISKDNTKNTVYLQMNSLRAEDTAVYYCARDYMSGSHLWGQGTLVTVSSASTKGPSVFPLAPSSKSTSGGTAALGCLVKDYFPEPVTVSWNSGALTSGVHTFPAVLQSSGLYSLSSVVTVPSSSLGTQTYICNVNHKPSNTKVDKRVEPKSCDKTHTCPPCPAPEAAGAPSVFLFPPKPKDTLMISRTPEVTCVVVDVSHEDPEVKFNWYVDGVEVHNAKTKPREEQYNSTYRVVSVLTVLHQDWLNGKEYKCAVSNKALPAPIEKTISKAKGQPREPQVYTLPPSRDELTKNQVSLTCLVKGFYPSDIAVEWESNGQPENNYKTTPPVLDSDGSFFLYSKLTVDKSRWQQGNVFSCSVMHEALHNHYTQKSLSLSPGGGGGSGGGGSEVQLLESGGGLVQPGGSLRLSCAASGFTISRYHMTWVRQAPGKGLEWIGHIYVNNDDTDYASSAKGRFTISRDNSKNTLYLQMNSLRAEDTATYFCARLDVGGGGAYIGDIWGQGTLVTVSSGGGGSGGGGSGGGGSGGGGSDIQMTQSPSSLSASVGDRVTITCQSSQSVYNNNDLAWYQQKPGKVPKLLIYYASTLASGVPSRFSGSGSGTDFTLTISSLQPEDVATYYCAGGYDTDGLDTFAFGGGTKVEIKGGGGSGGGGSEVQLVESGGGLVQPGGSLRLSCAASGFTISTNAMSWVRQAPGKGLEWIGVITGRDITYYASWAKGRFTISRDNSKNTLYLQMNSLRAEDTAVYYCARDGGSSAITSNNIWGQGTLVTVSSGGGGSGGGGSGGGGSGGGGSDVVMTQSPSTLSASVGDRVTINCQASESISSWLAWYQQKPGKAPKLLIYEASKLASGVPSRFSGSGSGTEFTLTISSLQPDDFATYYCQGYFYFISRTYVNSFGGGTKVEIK
light: AYDMTQSPSSVSASVGDRVTIKCQASEDIYSFLAWYQQKPGKAPKLLIHSASSLASGVPSRFSGSGSGTDFTLTISSLQPEDFATYYCQQGYGKNNVDNAFGGGTKVEIKRTVAAPSVFIFPPSDEQLKSGTASVVCLLNNFYPREAKVQWKVDNALQSGNSQESVTEQDSKDSTYSLSSTLTLSKADYEKHKVYACEVTHQGLSSPVTKSFNRGEC
notes: as for B1
binds: all assays above

Source: patent US20210024630A1 (SYSTIMMUNE, published 2021)
